Biological target: T1, pM-Gal4DBD-AR (amino acids 624-919), P10275
T1 chain: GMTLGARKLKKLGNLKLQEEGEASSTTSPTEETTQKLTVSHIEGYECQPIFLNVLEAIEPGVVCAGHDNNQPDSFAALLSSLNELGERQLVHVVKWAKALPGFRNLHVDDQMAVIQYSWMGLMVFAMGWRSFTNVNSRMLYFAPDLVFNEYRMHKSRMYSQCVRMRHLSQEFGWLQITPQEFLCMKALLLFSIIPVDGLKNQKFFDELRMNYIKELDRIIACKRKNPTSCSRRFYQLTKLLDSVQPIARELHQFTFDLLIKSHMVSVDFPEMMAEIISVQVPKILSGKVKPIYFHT
Test: mammalian two-hybrid
Conditions: chain shown with the change, HEK293T cells, read off a plot

B1: pVP16-AR111Q (amino acids 12-660), P10275 F23A (protein)
chain: PRPPSKTYRGAAQNLFQSVREVIQNPGPRHPEAASAAPPGASLLLLQQQQQQQQQQQQQQQQQQQQQQQETSPRQQQQQQGEDGSPQAHRRGPTGYLVLDEEQQPSQPQSALECHPERGCVPEPGAAVAASKGLPQQLPAPPDEDDSAAPSTLSLLGPTFPGLSSCSADLKDILSEASTMQLLQQQQQEAVSEGSSSGRAREASGAPTSSKDNYLGGTSTISDNAKELCKAVSVSMGLGVEALEHLSPGEQLRGDCMYAPLLGVPPAVRPTPCAPLAECKGSLLDDSAGKSTEDTAEYSPFKGGYTKGLEGESLGCSGSAAAGSSGTLELPSTLSLYKSGALDEAAAYQSRDYYNFPLALAGPPPPPPPPHPHARIKLENPLDYGSAWAAAAAQCRYGDLASLHGAGAAGPGSGSPSAAASSSWHTLFTAEEGQLYGPCGGGGGGGGGGGGGGGGGGGGGGGEAGAVAPYGYTRPPQGLAGQESDFTAPDVWYPGGMVSRVPYPSPTCVKSEMGPWMDSYSGPYGDMRLETARDHVLPIDYYFPPQKTCLICGDEASGCHYGALTCGSCKVFFKRAAEGKQKYLCASRNDCTIDKFRRKNCPSCRLRKCYEAGMTLGARKLKKLGNLKLQEEGEASSTTSPTEETTQKL
For B1, the response (Relative Luciferase Units) (DHT treated, parent: est. 2.4) was 0.35 and the other: Average Fold Change (DHT/EtOH treated) (DHT versus EtOH, parent: est. 2.2) was 0.9.

Source: article PMC11067348
